{"source": "patent US7820142B2", "about": "“Immunogenic glycopeptides, screening, preparation and uses” (priority 2004, dated 2010)", "key": {"CD4+ T lymphocytes": {"system": "CD4+ T lymphocytes", "assay_type": "cell-based, human", "conditions": "for difference of response between tuberculosis patients and vaccinated controls (in words): 18 patients versus 12 BCG-vaccinated controls"}, "[1]": {"system": "guinea pigs immunized with heat-inactivated BCG", "assay_type": "in vivo, guinea pig"}, "T lymphocytes": {"system": "T lymphocytes", "assay": "in vitro lymphocyte proliferation assay", "assay_type": "cell-based", "from_the_text": "The conditions of the assay are those described in Horn et al., mentioned above."}, "[2]": {"system": "guinea pigs immunized with live BCG", "assay_type": "in vivo, guinea pig", "conditions": "for loss of antigenic activity during digestion with α-mannosidase: 0.2 μg intradermal"}, "[3]": {"system": "CD4+ T lymphocytes originating from animals infected with M. tuberculosis or immunized with BCG", "conditions": "cited from earlier work"}, "[4]": {"system": "guinea pigs immunized with the plasmids pAG831 or pAG832", "assay": "delayed-type hypersensitivity assay, guinea pigs immunized with naked DNA encoding Apa", "conditions": "guinea pig, in vivo"}, "[5]": {"system": "guinea pigs immunized with the Apa fusion peptide", "assay": "delayed hypersensitivity reactions, guinea pigs immunized with the Apa fusion peptide", "assay_type": "in vivo, guinea pig"}, "[6]": {"conditions": "guinea pigs immunized with live BCG"}}, "note": "Entries after “also recorded” stand apart in the source; their conditions may differ. Like-named read-outs stand apart in the source and are kept apart here. No end group written: not given here."}
{"molecule": "H-DPEPAPPVPTTAASPPSTAAAPPAPATPVAPPPPAPAAAT-NH2 [glycosylated Apa peptide]", "values": [{"measurement": "stimulation of CD4+ lymphocytes from the controls", "setting": "CD4+ T lymphocytes", "result": "does not stimulate"}, {"measurement": "proportion of tuberculosis patients positive in the assay", "setting": "CD4+ T lymphocytes; 18 tuberculosis patients, six days stimulation", "result": "13/18"}]}
{"molecule": "Lip: mannosylated glycopeptide purified from M. tuberculosis culture medium, derived from the protein encoded by the Rv1796 gene (SEQ ID NO:3) (Ac-TIPTTETPPPPQTVTLSPVPPQTVTVIPAPPPEEG; also: mannosylated; listed as Mycobacterium tuberculosis)", "values": [{"measurement": "delayed-type hypersensitivity reaction (in words)", "setting": "[1]", "result": "relatively inactive"}, {"measurement": "T-lymphocyte proliferation", "setting": "T lymphocytes; T lymphocytes treated with an antibody directed against CD4 molecules", "result": "marginal"}, {"measurement": "T-lymphocyte proliferation", "setting": "T lymphocytes; glycopeptide treated with α-mannosidase", "result": "marginal"}, {"measurement": "T-lymphocyte proliferation", "setting": "T lymphocytes; native glycopeptide", "result": "dependent on the peptide concentration"}, {"measurement": "erythema reaction, peptide treated with subtilisin", "setting": "[2]; 0.02 μg in 0.1 ml", "result": "negative"}, {"measurement": "erythema reaction, peptide treated with α-mannosidase", "setting": "[2]; 0.02 μg in 0.1 ml", "result": "negative"}, {"measurement": "antigenic activity after deglycosylation", "setting": "[2]; after α-mannosidase for 24 h at 37° C.", "result": "less than 30 000 TU/mg"}, {"measurement": "antigenic activity", "setting": "[2]; [6]", "result": "1 000 000 TU/mg"}, {"measurement": "delayed-type hypersensitivity reaction (in words)", "setting": "[2]; [6]", "result": "very active"}, {"measurement": "antigenic activity after the action of subtilisin", "setting": "[2]; subtilisin 24 h at 37° C.", "result": "abolishes the antigenic activity"}, {"measurement": "activity relative to PPD at an equivalent amount of proteins", "setting": "[2]; versus standard purified proteins from M. tuberculosis (PPD)", "result": "at least 10 times"}, {"measurement": "loss of antigenic activity after α-mannosidase", "setting": "[2]; α-mannosidase for 24 h at 37° C.", "result": "more than 95%"}]}
{"molecule": "Native Apa: protein secreted by M. tuberculosis, product of the Rv 1860 gene, purified from the culture supernatant (protein, UniProt P9WIR7 40-325, looked up, glycosylated native, protein secreted by M. tuberculosis, product of the Rv 1860 gene, purified from the culture supernatant) Alanine and proline-rich …: DPEPAPPVPTTAASPPSTAAAPPAPATPVAPPPPAAANTPNAQPGDPNAAPPPADPNAPPPPVIAPNAPQPVRIDNPVGGFSFALPAGWVESDAAHFDYGSALLSKTTGDPPFPGQPPPVANDTRIVLGRLDQKLYASAEATDSKAAARLGSDMGEFYMPYPGTRINQETVSLDANGVSGSASYYEVKFSDPSKPNGQIWTGVIGSPAANAPDAGPPQRWFVVWLGTANNPVDKGAAKALAESIRPLVAPPPAPAPAPAEPAPAPAPAGEVAPTPTTPTPQRTLPA", "values": [{"measurement": "loss of antigenicity after demannosylation", "setting": "[3]; α-mannosidase, TFMS or expression in E. coli", "result": 100, "unit": "fold"}, {"measurement": "delayed-type hypersensitivity / CD4+ T lymphocyte response (in words)", "setting": "[4]", "result": "equivalent; also recorded: develop, in the vast majority of cases, an immune response"}, {"measurement": "difference of response between tuberculosis patients and vaccinated controls (in words)", "setting": "CD4+ T lymphocytes", "result": "stimulates more frequently the response from the patients"}, {"measurement": "loss of antigenic activity", "setting": "[2]; Apa molecules on which there remain 3 to 6 mannose residues", "result": 86, "unit": "%"}, {"measurement": "loss of antigenic activity during digestion with α-mannosidase", "setting": "[2]; digestion 1 h", "result": 66, "unit": "%"}, {"measurement": "loss of antigenic activity during digestion with α-mannosidase", "setting": "[2]; digestion 4 h", "result": 86, "unit": "%"}, {"measurement": "delayed-type hypersensitivity reaction (in words)", "setting": "[2]; [6]", "result": "antigenic; also recorded: show a delayed-type hypersensitivity reaction; also recorded: considerable"}, {"measurement": "sensitization (in words)", "setting": "[5]", "result": "identical"}]}
{"molecule": "Deglycosylated Apa: deglycosylated Apa protein prepared as described in example 1 (digestion with α-mannosidase) (protein, UniProt P9WIR7 40-325, looked up, deglycosylated) Alanine and proline-rich …: DPEPAPPVPTTAASPPSTAAAPPAPATPVAPPPPAAANTPNAQPGDPNAAPPPADPNAPPPPVIAPNAPQPVRIDNPVGGFSFALPAGWVESDAAHFDYGSALLSKTTGDPPFPGQPPPVANDTRIVLGRLDQKLYASAEATDSKAAARLGSDMGEFYMPYPGTRINQETVSLDANGVSGSASYYEVKFSDPSKPNGQIWTGVIGSPAANAPDAGPPQRWFVVWLGTANNPVDKGAAKALAESIRPLVAPPPAPAPAPAEPAPAPAPAGEVAPTPTTPTPQRTLPA", "values": [{"measurement": "delayed-type hypersensitivity / CD4+ T lymphocyte response (in words)", "setting": "[4]", "result": "of the same strength as the responses observed with the glycosylated native antigen"}, {"measurement": "difference of response between tuberculosis patients and vaccinated controls (in words)", "setting": "CD4+ T lymphocytes", "result": "this difference between the groups is lost"}, {"measurement": "delayed-type hypersensitivity reaction (in words)", "setting": "[2]; [6]", "result": "very weak or absent"}, {"measurement": "sensitization (in words)", "setting": "[5]", "result": "identical"}]}
{"molecule": "E. Coli recombinant Apa: deglycosylated recombinant Apa produced in E. coli (protein, UniProt P9WIR7 40-325, looked up, recombinant, non-glycosylated, E. coli) Alanine and proline-rich …: DPEPAPPVPTTAASPPSTAAAPPAPATPVAPPPPAAANTPNAQPGDPNAAPPPADPNAPPPPVIAPNAPQPVRIDNPVGGFSFALPAGWVESDAAHFDYGSALLSKTTGDPPFPGQPPPVANDTRIVLGRLDQKLYASAEATDSKAAARLGSDMGEFYMPYPGTRINQETVSLDANGVSGSASYYEVKFSDPSKPNGQIWTGVIGSPAANAPDAGPPQRWFVVWLGTANNPVDKGAAKALAESIRPLVAPPPAPAPAPAEPAPAPAPAGEVAPTPTTPTPQRTLPA", "values": [{"measurement": "delayed-type hypersensitivity / CD4+ T lymphocyte response (in words)", "setting": "[4]", "result": "of the same strength as the responses observed with the glycosylated native antigen"}, {"measurement": "delayed-type hypersensitivity / CD4+ T lymphocyte response (in words)", "setting": "[4]; listed as E. coli rApa", "result": "equivalent"}, {"measurement": "delayed-type hypersensitivity reaction (in words)", "setting": "[2]; guinea pigs immunized with live BCG, listed as molecules produced in E. coli", "result": "very weak or absent"}, {"measurement": "delayed-type hypersensitivity reaction (in words)", "setting": "[2]; guinea pigs immunized with live BCG, listed as non-glycosylated recombinant Apa produced in E. coli", "result": "no reaction or develop a greatly decreased reaction"}]}
{"molecule": "glycosylated Apa produced by Mycobacterium smegmatis: Apa produced by M. smegmatis, overall mannose composition slightly different from that of M. tuberculosis Apa (protein, UniProt P9WIR7 40-325, looked up, glycosylated, produced in M. smegmatis) Alanine and proline-rich …: DPEPAPPVPTTAASPPSTAAAPPAPATPVAPPPPAAANTPNAQPGDPNAAPPPADPNAPPPPVIAPNAPQPVRIDNPVGGFSFALPAGWVESDAAHFDYGSALLSKTTGDPPFPGQPPPVANDTRIVLGRLDQKLYASAEATDSKAAARLGSDMGEFYMPYPGTRINQETVSLDANGVSGSASYYEVKFSDPSKPNGQIWTGVIGSPAANAPDAGPPQRWFVVWLGTANNPVDKGAAKALAESIRPLVAPPPAPAPAPAEPAPAPAPAGEVAPTPTTPTPQRTLPA", "values": [{"measurement": "decrease of antigenic activity versus Apa produced by M. tuberculosis", "setting": "[3]", "result": "approximately 10 fold"}]}
